Assay results published in patent US20090158455A1, “COMPOSITIONS AND METHODS FOR MODULATING LYSINE PRODUCTION” (priority 2005, published 2009).

Legend:
Type in all cases: biochemical
[1] = biological target: T1, Arabidopsis LL-DAP-AT (At4g33680) (Arabidopsis thaliana, UniProt Q93ZN9); experiment: Quantitative forward assay coupled to 2-OG dehydrogenase, pure recombinant LL-DAP-AT; conditions: for Vmax: forward assay; for Forward (biosynthetic) activity disfavored compared with the reverse activity: initial rate, forward versus reverse
T1 construct: The recombinant protein lacks the first 39 amino acids of the At4g33680 protein; hexa-His (N); S-TAG (N); made in house; host or cells: E. coli BL21-CodonPlus-RIPL
Protocol: FIG. 4. […] The forward assay was conducted in two steps. […] The aminotransferase was assayed in the second step.
(§1) For enzyme assays of crude proteins, extracts were prepared by grinding tissue in liquid nitrogen with 100 mM HEPESKOH (pH 7.6), followed by centrifugation at 10,000 g for 15 min, and then buffer exchange using an Amicon Ultra 30,000 MWCO filter. […] Reactions were incubated at 30° C. and the ΔA (440 nm) measured continuously. […] The reaction was incubated at 30° C., and the decrease in A340 was measured. […] The reaction was run to completion, determined by monitoring the increase in A340. […] The kinetic constants were calculated by nonlinear regression analysis using GraphPad Prizm version 4.03.
The overall reaction series is shown in Scheme 2.
Thio-NADH has an absorbance maximum at 398 nm, which can be discerned from NADPH, which has an absorbance maximum at 340 nm. FIG. 4 illustrates such a reaction. […] Two plots are shown using 0.55 and 0.055 mM m-DAP.

[2] = biological target: T1, Arabidopsis LL-DAP-AT (At4g33680); experiment: Quantitative reverse assay coupled to Ddh, pure recombinant LL-DAP-AT; conditions: 30° C.
Protocol: For enzyme assays of crude proteins, extracts were prepared by grinding tissue in liquid nitrogen with 100 mM HEPESKOH (pH 7.6), followed by centrifugation at 10,000 g for 15 min, and then buffer exchange using an Amicon Ultra 30,000 MWCO filter. […] Reactions were incubated at 30° C. and the ΔA (440 nm) measured continuously. […] The reaction was incubated at 30° C., and the decrease in A340 was measured. […] The reaction was run to completion, determined by monitoring the increase in A340.
For this reason quantitative coupled assays were developed to assess the enzyme activity in both the reverse and forward directions. […] The reaction sequence is shown in Scheme 1.

LL-DAP transaminase [3] = experiment: Quantitative forward assay of purified microbial LL-DAP transaminases
Protocol: (§2) Enzyme assays were performed as described above in Examples I and II.
(§3) The catalytic properties of sll0480, BF2643, Dhaf—3980, MTH52, and SfumDRAFT0821 were studied in greater detail using purified enzymes to determine their kinetic constants using quantitative forward and reverse assays.

LL-DAP transaminase [4] = experiment: Quantitative reverse assay of purified microbial LL-DAP transaminases; conditions: reverse
Protocol: as §2, §3

LL-DAP-AT (At4g33680) = biological target: T2, LL-DAP-AT (At4g33680) (Arabidopsis thaliana, UniProt Q93ZN9); experiment: Reverse OAB assay of pure recombinant LL-DAP-AT, temperature and pH optimum; conditions: data not shown
T2 construct: The recombinant protein lacks the first 39 amino acids of the At4g33680 protein; hexa-His (N); S-TAG (N); made in house; host or cells: E. coli BL21-CodonPlus-RIPL
Protocol: as §1
The kinetic properties of the pure recombinant At4g33680 enzyme were studied using several different assays. […] Most aminotransferases require pyridoxal phosphate as a cofactor (Liepman and Olsen, 2004). The Lys residue at position 305 in the At4g33680 protein is predicted to be the pyridoxal phosphate ligand. […] The enzyme was also found to show a temperature optimum of 36° C. and a pH optimum of 7.6 when HEPESKOH buffer was used, and 7.9 when Tris HCl buffer was used (data not shown).

CT390 [5] = biological target: T3, CT390 (Chlamydia trachomatis serovar D, UniProt O84395); experiment: Quantitative forward assay of pure CT390; conditions: saturating substrates
T3 construct: His-Tag (N); made in house; host or cells: E. coli
Protocol: All enzyme assays were carried out essentially as described in Example I. Incubation temperature was 30° C. Kinetic constants were determined by varying substrate concentrations while keeping the co-substrate level constant at the concentration described below. Kinetic data were analyzed by non-linear regression analysis using GraphPad Prizm Version 4.03.
Quantitative assay of the physiologically forward reaction was carried out sequentially in a pre-reaction to generate THDP from m-DAP followed by an LL-DAP aminotransferase assay. […] The pre-reaction was run to completion, monitored by the increase in absorbance at 340 nm resulting from NADPH formation. The aminotransferase reaction was monitored at 398 nm to measure the formation of thioNADH. […] Subsequently, the aminotransferase assay was initiated by addition of CT390, bringing the total reaction volume to 1 mL.

CT390 [6] = biological target: T3, CT390; experiment: Quantitative reverse assay of pure CT390; conditions: reverse assay, saturating substrates

Molecule | Vmax [1] | Vmax ([1]; listed as LL-DAP-AT) | Forward (biosynthetic) activity disfavored compared with the reverse activity [1] | Forward (biosynthetic) activity disfavored compared with the reverse activity ([1]; listed as A. thaliana enzyme) | Vmax ([2]; pH 7.5) | Vmax ([2]; pH 7.5, listed as LL-DAP-AT) | Vmax F (LL-DAP transaminase [3]) | Vmax R (LL-DAP transaminase [4]) | pH optimum (LL-DAP-AT (At4g33680); HEPESKOH buffer) | pH optimum (LL-DAP-AT (At4g33680); Tris HCl buffer) | Temperature optimum (LL-DAP-AT (At4g33680)) | Vmax (CT390 [5]) | Vmax (CT390 [6])
Arabidopsis LL-DAP-AT: LL-DAP aminotransferase encoded by Arabidopsis locus At4g33680 (SEQ ID NO: 7), recombinant protein (protein, listed as Arabidopsis thaliana) MSSTHQLVSSMISSSSSTFLAPSNFNLRTRNACLPMAKRVNTCKCVATPQEKIEYKTKVSRNSNMSKLQAGYLFPEIARRRSAHLLKYPDAQVISLGIGDTTEPIPEVITSAMAKKAHELSTIEGYSGYGAEQGAKPLRAAIAKTFYGGLGIGDDDVFVSDGAKCDISRLQVMFGSNVTIAVQDPSYPAYVDSSVIMGQTGQFNTDVQKYGNIEYMRCTPENGFFPDLSTVGRTDIIFFCSPNNPTGAAATREQLTQLVEFAKKNGSIIVYDSAYAMYMSDDNPRSIFEIPGAEEVAMETASFSKYAGFTGVRLGWTVIPKKLLYSDGFPVAKDFNRIICTCFNGASNISQAGALACLTPEGLEAMHKVIGFYKENTNIIIDTFTSLGYDVYGGKNAPYVWVHFPNQSSWDVFAEILEKTHVVTTPGSGFGPGGEGFVRVSAFGHRENILEACRRFKQLYK | 0.38 ± 0.01 μmol min^−1 mg^−1 protein | 0.38 μmol min^−1 mg^−1 protein | 50 fold | approximately 60 fold | 22.3 ± 0.3 μmol min^−1 mg^−1 protein | 22.3 μmol min^−1 mg^−1 protein | 0.8 µmol/min/mg | 12 µmol/min/mg | 7.6 | 7.9 | 36 °C | – | –
CT390: LL-DAP aminotransferase encoded by ct390 of Chlamydia trachomatis (SEQ ID NO: 9), His-Tag fusion (protein, listed as Chlamydia trachomatis, His-Tag) MKRNPHFVSLTKNYLFADLQKRVAQFRLENPQHTVINLSIGDTTQPLNASVAEAFASSIARLSSPTTCRGYGPDFGLPALRQKLSEDFYRGFVDAKEIFISDGAKVDLFRLLSFFGPNQTVAIQDPSYPAYLDIARLTGAKEIIALPCLQENAFFPEFPEDTHIDILCLCSPNNPTGTVLNKDQLRAIVHYAIEHEILILFDAAYSTFISDPSLPKSIFEIPDARFCAIEINSFSKPLGFAGIRLGWTVIPQELTYADGHFVIQDWERFLSTTFNGASIPAQEAGVAGLSILPQLEAIHYYRENSDLLRKALLATGFEVFGGEHAPYLWVKPTQANISDRDLFDFFLREYHIAITPGIGFGRSGSGFVRFSSLGKREDILAACERLQMAPALQS | – | – | – | – | – | – | – | – | – | – | – | 0.38 μmol min^−1mg proteins^−1 | 0.59 μmol min^−1mg proteins^−1
